CN114031685A

What was measured:
[1] = target: SARS-CoV-2 Alpha株 S-ECD蛋白 (SARS-CoV-2 Alpha株 (B.1.1.7))
[2] = target: SARS-CoV-2 Beta株 S-ECD蛋白 (SARS-CoV-2 Beta株 (B.1.351))
[3] = target: SARS-CoV-2 Delta株 S-ECD蛋白 (SARS-CoV-2 Delta株 (B.1.617.2))
[4] = target: SARS-CoV-2 Gamma株 S-ECD蛋白 (SARS-CoV-2 Gamma株 (P.1))
[5] = target: SARS-CoV-2 Omicron株 S-ECD蛋白 (SARS-CoV-2 Omicron株 (B.1.1.529))

B1: 抗SARS-CoV-2全人源单克隆抗体ZW2G10 (antibody, V domains shown)
VH: EVQLVESGGGLVQPGRSLRLSCAASGFTFDDYAMHWVRQAPGKGLEWVSGITWNSGTIGYADSVKGRFIISRDNAKNSLHLQMNSLRVEDTALYYCAKDNSDYSGYYWELENYGMDVWGQGTTVTVSS
VL: QSVLTQPPSVSGAPGQRVTISCTGSSSNIGAGYDVHWYQQLPGTAPKLLIYDNNNRPSGVPDRFSGSKSGTSASLAITGLQAEDEADYYCQSFDSSLSGVVFGGGTRLTVLR
Kd [1]: 0.166 nM | Kd [2]: 0.518 nM | Kd [3]: 5.45 nM | Kd [4]: 0.615 nM | Kd [5]: 0.765 nM
